Reference: patent US20050002923A1 (published 2005)

Experiments:
[1] = tested on: UvrA (Eco) (Escherichia coli); test: EMSA; conditions: central (+)-trans-BPDE-N2-guanine adduct; CITED Zou et al. 1998; cited from earlier work
[2] = molecular target: Bca UvrA + Eco UvrB (Bacillus caldotenax / Escherichia coli) (UniProt P0A8F8); test: EMSA; conditions: central (+)-trans-BPDE-N2-guanine adduct; 10 nM UvrA, 100 nM Eco UvrB, 1 mM ATP, 10 mM MgCl2, 37 C; all substrate bound at 250 nM Eco UvrB
[3] = tested on: UvrA (Bca) (Bacillus caldotenax); test: EMSA; conditions: central (+)-trans-BPDE-N2-guanine adduct; ABC buffer, 10 mM MgCl2, 1 mM ATP, 37 C, 20 min; fitted as UvrA dimer
[4] = tested on: Bca UvrA + Eco UvrB + Eco UvrC (Bacillus caldotenax / Escherichia coli); test: cleavage_in_vitro; conditions: central (+)-trans-BPDE-N2-guanine adduct; 10 nM UvrA, 100 nM UvrB, 5 nM UvrC, 37 C 20 min; 83% and 60% after UvrA preincubation at 65 C for 10 and 30 min; figure legend says cis adduct, text says trans
[5] = tested on: Eco UvrA + Eco UvrB + Eco UvrC (Escherichia coli); test: cleavage_in_vitro; conditions: central (+)-trans-BPDE-N2-guanine adduct; 37 C 20 min; abolished by UvrA preincubation at 65 C for 10 min; figure legend says cis adduct, text says trans
[6] = tested on: UvrA (Bca) (Bacillus caldotenax); conditions: UV damage, 200 J/m2; ATPase; 13.2 without DNA; 37 C
[7] = molecular target: UvrA2 Δβh UvrB (Bca) UvrB deletion Gln97-Asp112 replaced by Gly (Bacillus caldotenax) (UniProt P56981); conditions: UV damage, 200 J/m2; ATPase; 19.0 without DNA
[8] = tested on: UvrA2UvrB (Bca) (Bacillus caldotenax); conditions: UV damage, 200 J/m2; ATPase; 18.3 without DNA
[9] = tested on: UvrA (Eco) (Escherichia coli); conditions: ATPase inhibited 23% by 0.224 nM dsDNA (control 71.5), 37 C
[10] = tested on: UvrA (Bca) (Bacillus caldotenax); conditions: ATPase stimulated about 10-fold by 5.6 nM dsDNA (control 4.42; 18.4 at 0.224 nM), 37 C
E. coli UvrB protein = molecular target: T1, E. coli UvrB protein (Escherichia coli, UniProt A7ZJI8 1-673); test: gel mobility shift with BPDE-DNA substrate, 37° C.
T1 construct: also called Eco UvrB; UvrB (Eco)
T1 sequence: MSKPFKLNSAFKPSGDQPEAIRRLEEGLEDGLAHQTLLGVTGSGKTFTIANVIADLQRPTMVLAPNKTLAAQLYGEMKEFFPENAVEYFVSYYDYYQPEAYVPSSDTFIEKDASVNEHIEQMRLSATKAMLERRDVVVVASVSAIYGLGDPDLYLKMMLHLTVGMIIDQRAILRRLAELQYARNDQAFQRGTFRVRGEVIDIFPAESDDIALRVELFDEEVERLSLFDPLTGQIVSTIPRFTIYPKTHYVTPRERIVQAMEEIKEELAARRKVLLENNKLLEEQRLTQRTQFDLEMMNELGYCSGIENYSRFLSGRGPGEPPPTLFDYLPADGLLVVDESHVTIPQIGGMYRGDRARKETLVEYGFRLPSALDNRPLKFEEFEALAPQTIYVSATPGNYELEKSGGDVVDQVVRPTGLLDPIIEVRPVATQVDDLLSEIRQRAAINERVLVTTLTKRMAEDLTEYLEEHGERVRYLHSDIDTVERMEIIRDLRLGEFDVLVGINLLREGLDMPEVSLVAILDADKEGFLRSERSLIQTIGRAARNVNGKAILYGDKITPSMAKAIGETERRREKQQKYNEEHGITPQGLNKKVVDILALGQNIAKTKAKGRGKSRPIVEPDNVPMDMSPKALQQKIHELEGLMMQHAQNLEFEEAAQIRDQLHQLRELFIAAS

[11] = molecular target: T2, Bacillus caldotenax (Bca) UvrA protein
T2 chain: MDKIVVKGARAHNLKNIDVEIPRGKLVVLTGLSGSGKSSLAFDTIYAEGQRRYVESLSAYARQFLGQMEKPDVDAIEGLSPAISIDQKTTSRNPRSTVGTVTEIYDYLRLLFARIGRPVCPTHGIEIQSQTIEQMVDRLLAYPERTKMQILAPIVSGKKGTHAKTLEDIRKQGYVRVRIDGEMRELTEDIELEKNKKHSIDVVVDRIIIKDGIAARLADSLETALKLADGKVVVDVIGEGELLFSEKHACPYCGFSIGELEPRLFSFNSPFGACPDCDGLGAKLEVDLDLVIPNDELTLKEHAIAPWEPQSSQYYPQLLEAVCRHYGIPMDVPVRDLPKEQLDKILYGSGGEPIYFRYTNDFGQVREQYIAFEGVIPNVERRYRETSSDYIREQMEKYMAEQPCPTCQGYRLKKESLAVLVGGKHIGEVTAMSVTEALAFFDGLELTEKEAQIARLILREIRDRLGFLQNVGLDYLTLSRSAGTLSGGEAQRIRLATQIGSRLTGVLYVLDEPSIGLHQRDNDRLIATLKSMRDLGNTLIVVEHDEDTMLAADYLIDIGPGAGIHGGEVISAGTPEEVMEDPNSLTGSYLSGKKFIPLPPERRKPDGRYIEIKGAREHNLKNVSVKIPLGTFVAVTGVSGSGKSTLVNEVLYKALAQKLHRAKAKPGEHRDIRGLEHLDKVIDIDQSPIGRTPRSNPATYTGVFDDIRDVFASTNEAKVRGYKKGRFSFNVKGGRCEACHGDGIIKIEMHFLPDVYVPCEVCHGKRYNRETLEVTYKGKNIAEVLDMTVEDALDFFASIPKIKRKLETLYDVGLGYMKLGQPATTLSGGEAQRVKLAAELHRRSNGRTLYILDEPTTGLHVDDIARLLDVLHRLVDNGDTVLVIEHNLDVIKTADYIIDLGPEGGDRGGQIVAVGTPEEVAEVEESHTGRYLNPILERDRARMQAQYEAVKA

In the case of (+)-trans-BPDE-N2-dG 50-bp duplex, the Kd [1] is given as 7.5 nM, the binding (% bound as UvrB-DNA) [2] is given as > 50 and the Kd [3] is given as 25 nM. The activity [4] was 89 % incised and the activity [5] was 67 % incised.

With UV-irradiated pUC18 DNA the activity (mol ATP/mol protein/min) [6] was 17, the activity (mol ATP/mol protein/min) [7] was 29 and the activity (mol ATP/mol protein/min) [8] was 22.

With pGL-2 plasmid DNA (undamaged) the activity (uM ADP/min/uM UvrA) [9] was 55.4 and the activity (uM ADP/min/uM UvrA) [10] was 45.6.

B1: Bacillus caldotenax (Bca) UvrA protein (enzyme)
chain: T2 chain
notes: Full-length recombinant protein made in E. coli as a UvrA-intein-CBD fusion and released by DTT cleavage; also called B. caldotenax UvrA; UvrASD
B1: binds (E. coli UvrB protein).

B2: β-hairpin deletion mutant of B. caldotenax UvrB (Δβh UvrB) (protein)
chain: VEGRFQLVAPYEPQGDQPQAIAKLVDGLRRGVKHQTLLGATGTGKTFTISNVIAQVNKPTLVIAHNKTLAGQLYSELKEFFPHNAVEYFVSYYDYYGAKINDEIDKLRHSATSALFERRDVIIVASVSCIYGLGSPEEYRELVVSLRVGMEIERNALLRRLVDIQYDRNDIDFRRGTFRVRGDVVEIFPASRDEHCIRVEFFGDEIERIREVDALTGEVLGEREHVAIFPASHFVTREEKMRLAIQNIEQELEERLAELRAQGKLLEAQRLEQRTRYDLEMMREMGFCSGIENYSRHLALRPPGSTPYTLLDYFPDDFLIIVDESHVTLPQLRGMYNGDRARKQVLVDHGFRLPSALDNRPLTFEEFEQKINQIIYVSATPGPYELEHSPGVVEQIIRPTGLLDPTIDVRPTKGQIDDLIGEIRERVERNERTLVTTLTKKMAEDLTDYLKEAGIKVAYLHSEIKTLERIEIIRDLRLGKYDVLVGINLLREGLDIPEVSLVAILDADKEGFLRSERSLIQTIGRAARNANGHVIMYADTITKSMEIAIQETKRRRAIQEEYNRKHGIVPRTVKKEIRDVIRATYAAEETEMYEAKPAAAMTKQEREELIRTLEAEMKEAAKALDFERAAQLRDIIFELKAEG
In the case of B2, the ATPase activity (mol of ATP hydrolyzed/mol of protein/min) [11] is reported as 19 and the ATPase activity (with UV-irradiated DNA) (mol of ATP hydrolyzed/mol of protein/min) [11] is reported as 29.

B3: Bacillus caldotenax (Bca) UvrB protein, wild type (protein)
chain: VEGRFQLVAPYEPQGDQPQAIAKLVDGLRRGVKHQTLLGATGTGKTFTISNVIAQVNKPTLVIAHNKTLAGQLYSELKEFFPHNAVEYFVSYYDYYQPEAYVPQTDTYIEKDAKINDEIDKLRHSATSALFERRDVIIVASVSCIYGLGSPEEYRELVVSLRVGMEIERNALLRRLVDIQYDRNDIDFRRGTFRVRGDVVEIFPASRDEHCIRVEFFGDEIERIREVDALTGEVLGEREHVAIFPASHFVTREEKMRLAIQNIEQELEERLAELRAQGKLLEAQRLEQRTRYDLEMMREMGFCSGIENYSRHLALRPPGSTPYTLLDYFPDDFLIIVDESHVTLPQLRGMYNGDRARKQVLVDHGFRLPSALDNRPLTFEEFEQKINQIIYVSATPGPYELEHSPGVVEQIIRPTGLLDPTIDVRPTKGQIDDLIGEIRERVERNERTLVTTLTKKMAEDLTDYLKEAGIKVAYLHSEIKTLERIEIIRDLRLGKYDVLVGINLLREGLDIPEVSLVAILDADKEGFLRSERSLIQTIGRAARNANGHVIMYADTITKSMEIAIQETKRRRAIQEEYNRKHGIVPRTVKKEIRDVIRATYAAEETEMYEAKPAAAMTKQEREELIRTLEAEMKEAAKALDFERAAQLRDIIFELKAEG
B3 gave an ATPase activity (mol of ATP hydrolyzed/mol of protein/min) [11] of 18.3 and an ATPase activity (with UV-irradiated DNA) (mol of ATP hydrolyzed/mol of protein/min) [11] of 22.
